PMC9600179

The sequences below were run against T1, AlgR (Pseudomonas aeruginosa PAO1) (UniProt P26275) (assay: EMSA). Details: EMSA: 10 mM Tris-HCl pH 7.4, 50 mM KCl, 5 mM MgCl2, 10% glycerol, 30 min, temperature not stated; 1 ug DIDC (poly dI-dC) with FITC probes in some assays ….
T1 sequence: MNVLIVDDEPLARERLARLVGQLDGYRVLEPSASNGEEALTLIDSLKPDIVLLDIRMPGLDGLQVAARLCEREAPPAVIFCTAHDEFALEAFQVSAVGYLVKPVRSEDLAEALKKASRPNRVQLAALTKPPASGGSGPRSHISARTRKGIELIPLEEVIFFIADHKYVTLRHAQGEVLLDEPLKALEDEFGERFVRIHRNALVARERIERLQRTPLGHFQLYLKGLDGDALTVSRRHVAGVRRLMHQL

Sequence | binding
CGGGTCTTCGTAGGCGTAGCGGGTGCTGCCGGCCGGGCCGCGCACCGTCGTCGCATTGCCCCGTTCGTCGCGCTCGAAGGTCCAGCGGCGCTGCATCGCGTCCTCCAGCTCGACCAGCAGCCCGGTCTCTTCGTCGACGCGCTTGCGATAGCGCGCCTTGCCCGGCGACTCCTCCTCGAGC (double strand) [tse5 CDS fragment] | binds
CTGGCGATGGAAGGCACTCCAATCGAGGTCCGCAGGGCCGACCAGCGCGTCCAGCGAGAAATCGTCGAGCAAAGGGCGTCCGGCGGCCGCACGCAGGGTCAACGGCGCCAAAGGACCGCTCAGCGACGGTGCATCGGCTTCACGCACCACCAGGCTGGCCTGGCAGTCGGCAGCGATATCGGCCAGGGCCTGCTCGCGGGACTT (double strand) [pqsA CDS fragment] | binds
GTACCTCGTCCGGCTCGGCGTCGGCGGTATAGCCGAGGATCAGGATCGGCGCGCGTCGCTCGCACCGTTCCTGGATGCGTATCCTGCGTGCCAGCTGATAGCCGTTCAGGCGCGGCATGTTGCAGTCGCTGATCAGCACCTCGAAGCGCTCGTCGGCCCAGAGCTCCAGCGCCA (double strand) [rocsS2 CDS fragment] | binds
